The results in this text go back to EP4578875A1 (Ying Mai de Medical Technology (Guangdong) Co., Ltd., dated 2025).

The target in the assay is T1, recombinant human CD3 Epsilon protein (KACTUS) (human, UniProt P07766 23-126).
T1 construct: Bought protein
Put plainly: ELISA, plate coated with 1 ug/ml recombinant human CD3 epsilon. (In general: An ELISA detects its analyte on a solid surface through an enzyme-linked reagent.)

T1 sequence (P07766 23-126): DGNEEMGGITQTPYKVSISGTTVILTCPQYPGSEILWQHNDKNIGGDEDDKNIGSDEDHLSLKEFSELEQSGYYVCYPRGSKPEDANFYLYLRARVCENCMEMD

B1: anti-Her2/anti-CD3 bispecific antibody comprising the anti-CD3 antibody mutant (mutation site VH-Y61C) (bispecific antibody)
VH: EVQLVESGGGLVQPGGSLRLSCAASGFTFSTYAMNWVRQAPGKGLEWVGRIRSKYNNYATCYADSVKDRFTISRDDSKNSLYLQMNSLKTEDTAVYYCARHGNFGNSYVSWFAYWGQGTLVTVSS
VL: QTVVTQEPSLTVSPGGTVTLTCRSSTGAVTTSNYANWVQQKPGQAPRGLIGGTNKRAPGVPARFSGSLLGDKAALTLLGAQPEDEAEYFCALWYSNLWVFGGGTKLTVL
scFv: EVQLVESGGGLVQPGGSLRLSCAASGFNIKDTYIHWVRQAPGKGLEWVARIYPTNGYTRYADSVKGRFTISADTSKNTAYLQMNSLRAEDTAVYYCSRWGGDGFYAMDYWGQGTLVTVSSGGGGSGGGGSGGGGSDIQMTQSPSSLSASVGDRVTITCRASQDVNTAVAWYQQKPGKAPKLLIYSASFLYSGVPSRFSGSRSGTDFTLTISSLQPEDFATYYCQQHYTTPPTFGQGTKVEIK
notes: also called CD3-Her2 Mutation; CD3-HER2 Mutation
On to B1, for which the binding result is listed as “binds”.
